According to paper PMC3832495, “Human Factor H-Related Protein 2 (CFHR2) Regulates Complement Activation” (PLoS ONE, 2013):
Blank lines part the entries; values can stand above or below the molecule they belong to.

Columns and labels:
N-biotinylated C3b = N-biotinylated C3b (UniProt P01024); test: SPR; Biacore T200, 25°C; N-biotinylated C3b captured on a streptavidin-coated CM3 chip (520 RU); factor H or CFHR2 6.25–3200 nM in HBS-EP (10 mM HEPES pH 7.4, 150 mM NaCl, 50 µM EDTA, 0.005% P20), 30 µl/min; 1:1 model with mass transport term, KD from kinetic rate constants; one CFHR2 dimer regarded as one molecule
[1] = molecular target: CFHR2/1-2 (N-terminal SCRs 1-2 of CFHR2) (human); test: SEC-MALS; static light scattering (miniDawn TREOS, Optilab T-rEX) with size exclusion chromatography on Superdex 200 or Superdex 75; proteins purified by Ni2+-chelate chromatography, deglycosylated, non-reduced
C3d = molecular target: T1, C3d (UniProt P01024 1002-1303); test: ELISA; competition: C3b or C3dg (methods; C3d in results) 5 µg/ml immobilised; constant CFHR2 (5 µg/ml, 0.07 µM) and increasing factor H (5–50 µg/ml, 0.033–0.33 µM); factor H detected with factor H/1-4 antiserum, CFHR2 with mAb A72; details: both partners purified
T1 construct: C3d, cleavage fragment of complement C3; source: bought: Complement Technology

[2] = molecular target: the molecule itself; test: SEC-MALS; static light scattering (miniDawn TREOS, Optilab T-rEX) with size exclusion chromatography on Superdex 200 or Superdex 75; proteins purified by Ni2+-chelate chromatography, deglycosylated, non-reduced
C3dg = molecular target: T2, C3dg (UniProt P01024 955-1303); test: ELISA; C3b, C3c, C3dg or C3d (each 142 nM) coated on MaxiSorp plates; CFHR2 or factor H (each 0.07 µM) or CFHR2 fragments in equimolar amounts; detected with CFHR1 and factor H antisera; details: both partners purified
T2 construct: C3dg, cleavage fragment of complement C3; cloned with the printed primer pair; source: E. coli, pET200/D-Topo expression system, purified (Ni-NTA Superflow Cartridge), dialyzed against DPBS
T2 sequence (P01024 955-1303): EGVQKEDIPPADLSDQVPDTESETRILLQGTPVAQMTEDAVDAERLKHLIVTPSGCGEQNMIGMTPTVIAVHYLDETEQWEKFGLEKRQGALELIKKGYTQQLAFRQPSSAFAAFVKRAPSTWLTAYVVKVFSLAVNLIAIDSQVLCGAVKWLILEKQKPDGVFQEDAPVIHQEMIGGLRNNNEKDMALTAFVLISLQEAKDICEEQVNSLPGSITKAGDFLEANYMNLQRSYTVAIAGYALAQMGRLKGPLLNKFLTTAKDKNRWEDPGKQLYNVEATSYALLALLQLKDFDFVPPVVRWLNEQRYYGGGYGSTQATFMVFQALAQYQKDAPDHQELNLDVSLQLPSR

T1 sequence (P01024 1002-1303): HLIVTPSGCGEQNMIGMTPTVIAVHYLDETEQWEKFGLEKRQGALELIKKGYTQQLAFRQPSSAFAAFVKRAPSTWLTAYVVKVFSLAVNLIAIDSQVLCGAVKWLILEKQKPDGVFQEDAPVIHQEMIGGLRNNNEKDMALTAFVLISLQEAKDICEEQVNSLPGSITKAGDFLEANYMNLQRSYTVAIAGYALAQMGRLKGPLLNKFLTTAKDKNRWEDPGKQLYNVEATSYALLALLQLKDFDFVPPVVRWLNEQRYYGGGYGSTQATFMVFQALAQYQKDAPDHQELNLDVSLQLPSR

Kd (N-biotinylated C3b): 570 nM
Molecule: Factor H (from UniProt P08603 19-1231) (natural protein)

stoichiometry N [1]: 2
Molecule: CFHR2/1-2 (N-terminal SCRs 1-2 of CFHR2) (domain or fragment)

Kd (N-biotinylated C3b): 4200 nM
binding result (C3d): binds
binding result (C3dg): binds
B1: Human factor H-related protein 2 (CFHR2), recombinant full length (natural protein, UniProt P36980 19-270, looked up)
chain: EAMFCDFPKINHGILYDEEKYKPFSQVPTGEVFYYSCEYNFVSPSKSFWTRITCAEEGWSPTPKCLRLCFFPFVENGHSESSGQTHLEGDTVQIICNTGYRLQNNENNISCVERGWSTPPKCRSTISAEKCGPPPPIDNGDITSFLLSVYAPGSSVEYQCQNLYQLEGNNQITCRNGQWSEPPKCLDPCVISQEIMEKYNIKLKWTNQQKLYSRTGDIVEFVCKSGYHPTKSHSFRAMCQNGKLVYPSCEEK
notes: Complement factor H-related protein 2 (CFHR2), human, four SCR domains; Secreted from Pichia; Several glycosylated forms; also called CFHR2 homodimer; CFHR2 dimer
stoichiometry N [2]: 2
